This note sets out measurements from US20040071701A1, “Use of NGF-antagonists for the prevention or treatment of chronic visceral pain” (priority 2002, published 2004).

One experiment deals with TNBS-treated rats. In words: Colonic distension-induced pain threshold in TNBS-treated rats (chronic colonic allodynia). As to conditions: 30 mg/kg s.c. in 20% cyclodextrin 30 minutes before distension, mean +/- SEM (n=7-8), vehicle 17.8+/-1.8, p<0.01. Format: in vivo, rat. As for the experimental part:
(§1) Adult male rats of the Wistar strain, 320 to 350 g in weight (obtained from the Janvier farm, Le Genest-Saint-Isle, France) were used for all the experiments. They were kept under controlled conditions of temperature (20+/−1° C.), humidity (50+/−5%) and lighting (light from 7 to 19 hours). The animals were starved of food for 18 hours before the beginning of the experiments, the supply of water being maintained.
(§2) Distension studies were carried out on waking rats in isobaric mode, using pressure increments of 5 mm of mercury every thirty seconds. A latex balloon, placed in the distal part of the colon is linked to an electronic barostat. The pain threshold is defined as the pressure inducing the first abdominal contraction. Each rat is subjected to four distension trials so as to increase the reproducibility of the test. The mean of the pressure values is calculated on the thresholds observed for the four successive distensions.
A laparotomy is carried out on rats anaesthetized with acepromazine (12 mg/kg i.p.) and ketamine (80 mg/kg i.p.) so as to inject into the proximal colon the trinitrobenzenesulphonic acid (TNBS) (50 mg/kg) in ethanol at 30%. The rats are then placed in individual cages. The colonic distension experiment is performed seven days after the administration of TNBS. […]

In another experiment the test system is naïve rats. In words: Colonic distension-induced pain threshold in naïve rats (isobaric balloon distension). Format: in vivo, rat. As for the experimental part:
as §1, §2
2.5 S-NGF obtained from mouse submaxillary gland (marketed by the company SIGMA under the reference N-6009) is dissolved in 0.1% bovine serum albumin (BSA). Into the naïve rats, 0.1 ng to 100 ng of NGF are injected by the i.p. route, 30 minutes before the distension.
Naïve rats were subjected to distension experiments with a balloon placed in the distal part of the colon. […]

Regarding `O=C1c2cccc3cc([N+](=O)[O-])cc(c23)C(=O)N1NCCO` [ALE-0540], in the experiment with TNBS-treated rats, the colonic pain threshold is 37.6+/−4.5 mmHg.

B1: NGF: 2.5 S-NGF obtained from mouse submaxillary gland (SIGMA reference N-6009) (protein, UniProt P01139 122-241, looked up)
Beta-nerve growth factor: SSTHPVFHMGEFSVCDSVSVWVGDKTTATDIKGKEVTVLAEVNINNSVFRQYFFETKCRASNPVESGCRGIDSKHWNSYCTTTHTFVKALTTDEKQAAWRFIRIDTACVCVLSRKATRRG
modifications: Beta-nerve growth factor
Take B1: in the experiment with naïve rats (naïve Wistar rats, 1 ng of NGF i.p. 30 minutes before distension, control (BSA) about 44 mmHg), the colonic pain threshold result is “less than 20 mmHg”. The “effect on threshold of pain in the colon” value in the experiment with naïve rats (naïve rats, increasing doses of NGF (0.1 ng to 100 ng) i.p.) is reported as “significant reduction”.
